Experimental data from patent publication US20170267730A1 (UNIVERSITY COURT OF THE UNIVERSITY OF EDINBURGH, published 2017).
Changes are numbered by the printed parent chain. Names and notes keep the numbering of the source.

B1: WT-BslA truncated, BslA42-181 (other)
chain: MRTQSTASLFATITGASKTEWSFSDIELTYRPNTLLSLGVMEFTLPSGFTANTKDTLNGNALRTTQILNNGKTVRVPLALDLLGAGEFKLKLNNKTLPAAGTYTFRAENKSLSIGNKFYAEASIDVAKRSTPPTQPCGCN
notes: In solution it is a mix of monomers and disulfide-linked dimers; also called wild-type biofilm-surface layer protein A; YuaB
B2: BslA-L77K truncated (other)
chain: B1 chain with L36K
notes: also called L77K BslA; L77K-BslA

Experiments:
[1] = target: the molecule itself; test: size-exclusion chromatography with multiangle light scattering (self-association in solution, disulfide-linked dimers)
[2] = target: the molecule itself; test: TEM, uranyl acetate stain (self-assembly into a 2D lattice)
Source text: Multiple domains of the WT-BslA lattice could be observed in any location on the grid. The observed domain areas varied from as small as 1000 nm² (˜50 BslA molecules) up to 200000 nm² (>10000 BslA molecules). Less ordered “inter-domain” areas were also observed. […] The largest BslA-L77K domain size observed was approximately […] (1250 BslA molecules).

Protein | binding result [1] | binding result [2]
B1 | binds | –
B2 | – | binds
